The record followed here is the supplement of paper PMC10724198.

± gives the standard deviation of the averaged measurements.

The test system of series [1] is Saccharomyces cerevisiae. In words: protein stability index of tFT-peptide fusion (C-terminal peptide) (PSI (0-1 scale)); higher = more stable (slower turnover). Here is the method:
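MPS profiling in S. cerevisiae of the tFT-X12 degron library: putative degron peptides plus stable controls, 12 aa, fused to the C-terminus of a sfGFP-mCherry timer. Cells are FACS-sorted into 8 mCherry/sfGFP bins and deep-sequenced. PSI runs from 0 (unstable) to 1 (stable). Backgrounds are wild type, das1Δ and doa10Δ at 30 °C, and wild type, das1Δ, cdc34-1 and cdc53-1 at 37 °C; 2-3 technical replicates each.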

Series [2] deals with Saccharomyces cerevisiae. The description is as above. As to conditions: genetic background: wild type; temperature: 30 C.
[3] abbreviates: genetic background: cdc34-1, temperature: 37 C.
The mark [4] stands for this setting: genetic background: cdc53-1, temperature: 37 C.
[5] abbreviates: genetic background: das1 deletion, temperature: 30 C.
Where [6] appears, read: genetic background: das1 deletion, temperature: 37 C.
The mark [7] stands for this setting: genetic background: doa10 deletion, temperature: 30 C.
[8] abbreviates: genetic background: wild type, temperature: 30 C.
Setting [9] is: genetic background: wild type, temperature: 37 C.
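Further: PSI is a weighted mean of sequencing reads over stability bins, variants kept only with over 10 reads, mCherry proximal and sfGFP distal, peptide attached via GGGS linker.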

For WFSMSRLWVFYS, the protein stability index was determined as 0.415 ± 0.043 in series [1] (setting [3]); 0.637 ± 0.018 in series [1] (setting [4]); 0.619 ± 0.028 in series [1] (setting [5]); 0.729 ± 0.045 in series [1] (setting [6]); 0.1047 ± 0.00079 in series [1] (setting [7]); 0.0847 ± 0.027 in series [1] (setting [8]). Besides, the figures for the protein stability index in series [1] (setting [9]) and in series [2] were 0.106 ± 0.024 and 0.217 ± 0.082, respectively.

For the sequence WFSRCVSLGLCW, the protein stability index was found to be 0.2808 ± 0.0017 in series [1] (setting [3]); 0.3093 ± 0.0024 in series [1] (setting [4]); 0.29 ± 0.019 in series [1] (setting [5]); 0.398 ± 0.018 in series [1] (setting [6]); 0.274 ± 0.012 in series [1] (setting [7]); 0.302 ± 0.029 in series [1] (setting [8]). The protein stability index in series [1] (setting [9]) came to 0.363 ± 0.017; in series [2], 0.4176 ± 0.0036.

For the sequence WFSVRQLVFVSG, the protein stability index in series [1] (setting [3]) was determined as 0.119 ± 0.011; in series [1] (setting [4]), 0.146 ± 0.018; in series [1] (setting [5]), 0.163 ± 0.028; in series [1] (setting [6]), 0.236 ± 0.0094; in series [1] (setting [7]), 0.124 ± 0.0015; in series [1] (setting [8]), 0.163 ± 0.019. The values for the protein stability index in series [1] (setting [9]) and in series [2] were 0.218 ± 0.0069 and 0.218 ± 0.014, respectively.

Consider WISVRIFISCFF, for which the protein stability index came out at 0.177 ± 0.0059 in series [1] (setting [3]); 0.269 ± 0.02 in series [1] (setting [4]); 0.191 ± 0.024 in series [1] (setting [5]); 0.318 ± 0.0052 in series [1] (setting [6]); 0.192 ± 0.0026 in series [1] (setting [7]); 0.191 ± 0.035 in series [1] (setting [8]). Also, the protein stability index in series [1] (setting [9]) is 0.271 ± 0.0047; in series [2], 0.267 ± 0.022.

As for WLCLAVLVRFPC, the protein stability index in series [1] (setting [3]) was 0.273 ± 0.0054; in series [1] (setting [4]), 0.274 ± 0.018; in series [1] (setting [5]), 0.25 ± 0.043; in series [1] (setting [6]) it was 0.3989 ± 0.0019; in series [1] (setting [7]), 0.2621 ± 0.0017; in series [1] (setting [8]), 0.248 ± 0.017. For the same sequence, the protein stability index in series [1] (setting [9]) was 0.369 ± 0.018; in series [2], 0.3532 ± 0.0026.

Consider WQIGIYILQGLA, for which the protein stability index in series [1] (setting [3]) was 0.271 ± 0.03; in series [1] (setting [4]) it was 0.316 ± 0.0064; in series [1] (setting [5]), 0.242 ± 0.04; in series [1] (setting [6]) it was 0.389 ± 0.018; in series [1] (setting [7]), 0.146 ± 0.011; in series [1] (setting [8]) it was 0.163 ± 0.049. For the same sequence, the protein stability index in series [1] (setting [9]) was 0.262 ± 0.015; in series [2] it was 0.256 ± 0.023.

Take WSCVGLWGRFCC: the protein stability index was 0.663 ± 0.033 in series [1] (setting [3]); 0.748 ± 0.018 in series [1] (setting [4]); 0.637 ± 0.011 in series [1] (setting [5]); 0.76 ± 0.013 in series [1] (setting [6]); 0.267 ± 0.011 in series [1] (setting [7]); 0.299 ± 0.0093 in series [1] (setting [8]). The protein stability index in series [1] (setting [9]) is 0.57 ± 0.0094; in series [2] it was 0.448 ± 0.036.

Regarding WSISFGLLVCWV, the protein stability index came to 0.27 ± 0.045 in series [1] (setting [3]); 0.322 ± 0.0049 in series [1] (setting [4]); 0.199 ± 0.019 in series [1] (setting [5]); 0.42 ± 0.013 in series [1] (setting [6]); 0.154 ± 0.012 in series [1] (setting [7]); 0.191 ± 0.016 in series [1] (setting [8]). For the same sequence, the protein stability index in series [1] (setting [9]) worked out at 0.379 ± 0.066; in series [2], 0.233 ± 0.039.

On to WVFVVWFVFVVG, for which the protein stability index was 0.242 ± 0.022 in series [1] (setting [3]); 0.3112 ± 0.00051 in series [1] (setting [4]); 0.241 ± 0.022 in series [1] (setting [5]); 0.374 ± 0.021 in series [1] (setting [6]); 0.202 ± 0.013 in series [1] (setting [7]); 0.215 ± 0.02 in series [1] (setting [8]). For the same sequence, the protein stability index was determined as 0.356 ± 0.03 in series [1] (setting [9]) and 0.322 ± 0.016 in series [2].

WVGGVLLSVVGG: the protein stability index in series [1] (setting [3]) turned out to be 0.158 ± 0.014; in series [1] (setting [4]) it was 0.413 ± 0.041; in series [1] (setting [5]), 0.213 ± 0.028; in series [1] (setting [6]), 0.349 ± 0.0084; in series [1] (setting [7]), 0.179 ± 0.01; in series [1] (setting [8]), 0.192 ± 0.029. For the same sequence, the protein stability index was determined as 0.399 ± 0.059 in series [1] (setting [9]) and 0.245 ± 0.014 in series [2].
